The test deals with AAV8 VP3 of the VP3-only capsid (VLP-0) (adeno-associated virus serotype 8). Nature of the test: native MS; high-resolution ensemble native MS of purified capsids; 75 mM ammonium acetate pH 7.5; Orbitrap Q Exactive UHMR, xenon collision gas, positive ion mode; spectra compared with simulations of stochastic assembly.

“AAV8 VP3 of the VP3-only capsid (VLP-0) (natural protein)”: the stoichiometry N (commonly the number of molecules, sites or subunits per partner or assembly) was 60.

These data come from article PMC10498669.
